Test results from patent US9163063B2, “Peptides and nanoparticles for therapeutic and diagnostic applications” (Trustees of Dartmouth College, priority 2009, dated 2015).
Ends that are not written are not given here. * marks the point of attachment. Biotin = O=C1N[C@H]2[C@H](CS[C@H]2CCCCC(=O)*)N1

Columns and labels:
EGFR = EGFR expression after integrin-tail peptide in AsPC1 cells; format: cell-based, human; conditions: AsPC1 pancreatic adenocarcinoma cells
From the text: In addition, with its PDZ domain, GIPC is associated with a vast list of transmembrane receptors, including integrin α6 and α 5 that are expressed in several pancreatic cancer cell lines. […] EGFR is a receptor tyrosine kinase highly expressed in pancreatic cancer cells and is a prognostic factor for overall survival. […] A peptide designed to disrupt the interaction between the PDZ domain and the cytoplasmic tail of integrin α 5 and α 6 (KERLTSDA, SEQ ID NO. 8) was utilized.

[1] = target: T1, PDZ domain of GIPC/synectin (Homo sapiens, UniProt O14908); assay: Phage ELISA / phage binding assay with N-terminal biotinylated peptides; conditions: GIPC-PDZ T7 phage
T1 construct: dsDNA encoding the PDZ domain of GIPC/synectin was double-digested with EcoRI and HindIII; made in house; host or cells: T7 phage grown in E. coli BLT5403
T1 sequence (O14908 133-213 limits assumed): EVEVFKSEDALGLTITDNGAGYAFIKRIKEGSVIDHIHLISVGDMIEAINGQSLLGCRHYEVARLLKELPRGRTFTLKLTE
Protocol: dsDNA encoding the PDZ domain of GIPC/synectin was double-digested with EcoRI and HindIII, and the DNA (0.8 μL of a 45 nM (7.7 ng/μL) solution) was used in the ligation reaction with the T7 Select 10-3 vector arms (Novagen, 0.5 μL), along with 10× ligase buffer (0.25 μL); ATP (10 mM, 0.25 μL, final concentration 1 mM); DTT (100 mM, 0.25 μL); and T4 DNA ligase (0.5 μL, 1 unit/μL). The sample was incubated at 16° C. for 16 h. The T7 phage packaging reaction was performed by adding packaging extract (Novagen, 12.5 μL, or half the manufacturer's recommended amount) to the ligation reaction sample (2.5 μL) and allowing it to incubate for 2 h at room temperature. The reaction was stopped by the addition of a sterile LB medium (135 μL). A plaque assay was performed to determine the number of recombinant phage generated. E. coli BTL5403 was grown at 37° C. with shaking in LB/Amp50 medium (10 mL) until OD˜1.0 was reached. Top agarose (10 mL) was melted and equilibrated to this temperature. A series of dilutions was prepared prior to plating the phage. The first dilution was generated by adding packaged phage (10 μL) to LB/Amp50 (990 μL) for a total of 100-fold dilution (10^2). […] Plaques generated were counted to determine the titer and the number of recombinants generated. […]

binding to the PDZ domain of GIPC/synectin [1] | Substance | EGFR expression (EGFR)
– | KERLTSDA [K-E-R-L-T-S-D-A] | down regulation of EGFR
not recognized | KKETEV (Biotin-KKETEV) | –
not recognized | KKETAV | –
